Laboratory results reported in paper doi:10.1101/2022.03.30.486221 (bioRxiv, 2022).

Target: the molecule itself
Assay: SEC

B1: recombinant His6-tagged StTGA2.1 (natural protein, UniProt A0A9F1U434 1-270, looked up)
chain: MDAMGDREGPRLVSSTALWRGDRRPAQVVQVSQLEQDFQRAPQQRESGSLPFDTEYSRWLEEHTKHINELRTAVNSHASDPELRSMVDSVIAHYDEVYRMKANAAKGNVEHLLSGMWKTPAERCSMWIGDFRPSLLLKLLVNQVEPLTEQQLIGIVNLQQSSQQAEDALSQDMEAWQQSLEVTLAYGSLATEGSSGDAAYNISQMAMAMGILGTLEGFLRQADNLRQQTLQQMHRMLTTRQSARALLAISEYFSRLRALSSLWLARPREQ
  stoichiometry N: 2
